# From patent publication US20130011380A1 (published 2013)
# B1: human AID containing two tandem Flag tags (Flag-human AID) (enzyme, UniProt Q9GZX7 1-198, looked up)
# chain: MDSLLMNRRKFLYQFKNVRWAKGRRETYLCYVVKRRDSATSFSLDFGYLRNKNGCHVELLFLRYISDWDLDPGRCYRVTWFTSWSPCYDCARHVADFLRGNPNLSLRIFTARLYFCEDRKAEPEGLRRLHRAGVQIAIMTFKDYFYCWNTFVENHERTFKAWEGLHENSVRLSRQLRRILLPLYEVDDLRDAFRTLGL
# notes: Stably overexpressed in mouse ES cells (CGR8) from the pHAGE-STEMCCA lentiviral vector; Two constructs (N-terminal or C-terminal 2x Flag) were made; also called AID-Flag protein; not shown: two tandem Flag tags
# Columns and labels:
# Assay in all cases: anti-Flag IP-MS, mES nuclear extract
# Tip2 = biological target: T1, Tip2 (mouse)
# T1 construct: Gene name as printed; possibly a misprint, not resolved
# From the text: (§1) Mass spectrometry was used to identify the potential interactors of AID and understand the functional molecular players that orchestrate mammalian DNA demethylation. The following AID constructs were used: 1) human AID containing two tandem Flag tags at the N-terminus of the protein, cloned into the pHAGE-STEMCCA lentiviral vector, and 2) human AID containing two tandem Flag tags at the C-terminus of the protein, cloned into the pHAGE-STEMCCA lentiviral vector. Virus containing these constructs was subsequently used to infect mouse embryonic stem cells (CGR8), and stable cell lines overexpressing Flag-human AID were selected. As a control, the lentiviral vector containing only the 2× Flag tag was used.
# (§2) The stable ES cell lines expressing AID and Control 2× Flag were fractionated into cytoplasmic and nuclear extracts for immunoprecipitating the AID protein using an antibody against the Flag tag. The resulting complex was subjected to mass spectrometric analyses.
# (§3) TABLE 5 After immunoprecipitation, AID and the interacting proteins were identified by mass spectrometry (MS). All proteins were subjected to trypsin digestion to break them down into smaller peptides, and run through a mass spectrometer. Column C indicates the number of unique peptides of a particular protein detected by MS analysis, to be associated with the AID-Flag protein. Column D represents the number of peptides associated with the Flag only protein. The higher the number of unique peptides (>3) that are associated with AID, but not with the Flag protein, the stronger the indication of the specificity of the interaction. Columns E and F represent the associated spectra i.e. the frequency of these peptides detected in association with the AID protein as a measure of the abundance of the associated protein.
# Tmpo = Tmpo (mouse)
# From the text: as §1, §2, §3
# Lmo7 = Lmo7 (mouse, UniProt E9PYF4 24-1649)
# From the text: as §1, §2, §3
# Sequence of Lmo7 (E9PYF4 entry or part of it): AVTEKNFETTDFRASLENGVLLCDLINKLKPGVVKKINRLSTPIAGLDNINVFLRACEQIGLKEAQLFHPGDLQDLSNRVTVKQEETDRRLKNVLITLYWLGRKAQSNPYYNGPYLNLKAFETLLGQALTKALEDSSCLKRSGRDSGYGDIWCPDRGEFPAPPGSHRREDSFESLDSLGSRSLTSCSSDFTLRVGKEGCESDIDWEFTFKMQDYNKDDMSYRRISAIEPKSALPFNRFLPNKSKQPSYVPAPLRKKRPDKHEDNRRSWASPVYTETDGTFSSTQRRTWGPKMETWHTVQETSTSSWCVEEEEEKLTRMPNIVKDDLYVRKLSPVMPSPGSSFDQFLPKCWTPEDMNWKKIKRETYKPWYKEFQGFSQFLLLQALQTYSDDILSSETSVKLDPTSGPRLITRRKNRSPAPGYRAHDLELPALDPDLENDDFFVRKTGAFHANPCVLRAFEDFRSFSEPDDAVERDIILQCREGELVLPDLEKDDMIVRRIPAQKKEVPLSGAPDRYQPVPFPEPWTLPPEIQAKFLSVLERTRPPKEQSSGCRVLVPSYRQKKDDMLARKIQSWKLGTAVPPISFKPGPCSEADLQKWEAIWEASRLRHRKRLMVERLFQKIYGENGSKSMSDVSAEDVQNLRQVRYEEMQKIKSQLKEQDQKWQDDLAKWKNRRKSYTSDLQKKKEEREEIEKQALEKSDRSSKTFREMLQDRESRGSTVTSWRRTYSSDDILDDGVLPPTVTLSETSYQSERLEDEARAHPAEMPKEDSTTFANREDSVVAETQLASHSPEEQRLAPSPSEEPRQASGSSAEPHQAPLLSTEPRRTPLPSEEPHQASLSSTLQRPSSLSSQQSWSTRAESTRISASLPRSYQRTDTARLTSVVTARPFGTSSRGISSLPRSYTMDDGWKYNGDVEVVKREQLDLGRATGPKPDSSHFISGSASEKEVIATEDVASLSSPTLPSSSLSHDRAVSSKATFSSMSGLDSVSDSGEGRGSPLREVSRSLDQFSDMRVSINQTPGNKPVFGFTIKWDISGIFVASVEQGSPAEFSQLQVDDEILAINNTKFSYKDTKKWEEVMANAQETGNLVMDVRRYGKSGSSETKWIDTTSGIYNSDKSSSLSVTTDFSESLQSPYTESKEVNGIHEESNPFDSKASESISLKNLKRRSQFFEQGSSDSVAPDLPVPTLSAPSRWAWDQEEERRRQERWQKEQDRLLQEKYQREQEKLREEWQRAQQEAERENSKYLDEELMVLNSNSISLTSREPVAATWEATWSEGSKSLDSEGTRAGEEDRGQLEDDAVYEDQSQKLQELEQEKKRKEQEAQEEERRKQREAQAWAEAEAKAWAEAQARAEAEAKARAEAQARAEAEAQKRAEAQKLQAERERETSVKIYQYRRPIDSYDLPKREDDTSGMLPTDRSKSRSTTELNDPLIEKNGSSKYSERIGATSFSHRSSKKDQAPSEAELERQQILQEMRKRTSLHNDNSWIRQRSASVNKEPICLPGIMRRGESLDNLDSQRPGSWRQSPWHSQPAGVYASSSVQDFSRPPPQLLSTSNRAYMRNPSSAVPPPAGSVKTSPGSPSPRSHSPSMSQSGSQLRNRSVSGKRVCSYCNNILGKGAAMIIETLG
# T1 sequence (Q9Z0U1 whole entry): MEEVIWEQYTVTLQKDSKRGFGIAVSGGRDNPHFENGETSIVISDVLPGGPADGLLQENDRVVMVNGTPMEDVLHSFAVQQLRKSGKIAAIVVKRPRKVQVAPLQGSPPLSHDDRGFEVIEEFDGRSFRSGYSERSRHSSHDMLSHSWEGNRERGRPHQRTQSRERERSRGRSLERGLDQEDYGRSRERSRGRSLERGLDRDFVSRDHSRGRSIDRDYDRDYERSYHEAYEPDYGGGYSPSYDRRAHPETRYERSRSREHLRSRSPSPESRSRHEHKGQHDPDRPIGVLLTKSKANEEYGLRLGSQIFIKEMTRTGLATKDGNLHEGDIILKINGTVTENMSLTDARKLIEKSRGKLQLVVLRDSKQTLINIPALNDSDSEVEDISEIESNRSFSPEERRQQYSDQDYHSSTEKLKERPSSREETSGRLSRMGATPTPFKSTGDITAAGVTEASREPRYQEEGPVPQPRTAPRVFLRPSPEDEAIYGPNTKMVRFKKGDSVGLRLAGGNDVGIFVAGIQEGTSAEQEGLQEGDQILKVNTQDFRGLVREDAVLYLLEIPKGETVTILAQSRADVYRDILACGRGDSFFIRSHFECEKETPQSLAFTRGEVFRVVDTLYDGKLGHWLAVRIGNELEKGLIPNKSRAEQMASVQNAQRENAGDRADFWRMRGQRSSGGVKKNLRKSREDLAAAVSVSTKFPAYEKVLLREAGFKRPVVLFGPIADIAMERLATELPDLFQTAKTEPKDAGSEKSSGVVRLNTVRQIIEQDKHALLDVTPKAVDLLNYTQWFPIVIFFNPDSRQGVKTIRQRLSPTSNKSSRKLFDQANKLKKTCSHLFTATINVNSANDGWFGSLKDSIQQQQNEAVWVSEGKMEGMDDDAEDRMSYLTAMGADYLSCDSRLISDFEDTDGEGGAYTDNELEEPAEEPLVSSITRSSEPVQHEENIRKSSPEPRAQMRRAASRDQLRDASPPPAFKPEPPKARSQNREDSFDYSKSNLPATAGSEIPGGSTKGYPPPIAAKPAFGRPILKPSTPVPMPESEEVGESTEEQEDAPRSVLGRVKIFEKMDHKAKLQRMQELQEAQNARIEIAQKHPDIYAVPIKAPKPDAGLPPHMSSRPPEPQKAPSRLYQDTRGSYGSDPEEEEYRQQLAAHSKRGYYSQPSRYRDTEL
binder,measurement,setting,value
B1,Nucleus peptide,Tip2,16 peptides
same,Nucleus spectra,Tip2,36 spectra
same,Nucleus peptide,Tmpo,4 peptides
same,Nucleus spectra,Tmpo,16 spectra
same,Nucleus peptide,Lmo7,15 peptides
same,Nucleus spectra,Lmo7,31 spectra
